From PMC9198048, “Ursodeoxycholic acid reduces antitumor immunosuppression by inducing CHIP-mediated TGF-β degradation” (Nature Communications, 2022)

Biological target: T1, Flag-TGF-β1WT (UniProt P04202 30-390)
T1 construct: TGF-β1 expressed from PCMV6-TGF-β1-Flag, constructed from the Origene plasmid PCMV6-TGF-β1-Myc-Flag (MR227339); Origene MR clones are mouse ORF clones as far as I recall; the printed sites T282 and K315 fit the precursor numbering of mouse and human TGF-β1; In cells the protein may be phosphorylated (T282) and ubiquitinated (K315); also called PCMV6-TGF-β1-Flag; source: HEK293T, transfected, in …
T1 sequence (P04202 30-390): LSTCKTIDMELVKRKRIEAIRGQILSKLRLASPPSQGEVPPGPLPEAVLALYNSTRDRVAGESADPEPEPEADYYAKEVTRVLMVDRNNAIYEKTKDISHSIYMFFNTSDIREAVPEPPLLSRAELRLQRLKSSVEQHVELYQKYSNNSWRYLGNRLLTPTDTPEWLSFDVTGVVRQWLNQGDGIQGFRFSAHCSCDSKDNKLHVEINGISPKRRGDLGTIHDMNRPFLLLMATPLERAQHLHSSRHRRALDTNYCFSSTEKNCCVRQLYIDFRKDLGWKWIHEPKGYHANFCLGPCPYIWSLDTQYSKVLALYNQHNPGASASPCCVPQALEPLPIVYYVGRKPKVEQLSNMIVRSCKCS
Assay: pull-down; about 1 µg His-CHIP bound to His beads mixed with 1 µg Flag-TGF-β1WT or Flag-TGF-β1T282A, 4 °C overnight, washed three times with cell lysis buffer, immunoblot
Conditions: both partners purified

B1: His-CHIP (enzyme, UniProt Q9WUD1 1-304, looked up)
chain: MKGKEEKEGGARLGTGGGGSPDKSPSAQELKEQGNRLFVGRKYPEAAACYGRAITRNPLVAVYYTNRALCYLKMQQPEQALADCRRALELDGQSVKAHFFLGQCQLEMESYDEAIANLQRAYSLAKEQRLNFGDDIPSALRIAKKKRWNSIEERRIHQESELHSYLTRLIAAERERELEECQRNHEGHEDDGHIRAQQACIEAKHDKYMADMDELFSQVDEKRKKRDIPDYLCGKISFELMREPCITPSGITYDRKDIEEHLQRVGHFDPVTRSPLTQEQLIPNLAMKEVIDAFISENGWVEDY
notes: also called PCMV6-CHIP-His
- binding result: binds
